The chains are these.
T1: mouse VISTA protein (mVISTA-Fc, R&D Systems, Cat. No. 7005-B7) (mouse, UniProt Q9D659 33-191)
T1 construct: Bought recombinant protein; not shown: Fc part of the bought fusion protein
T1 sequence (looked up): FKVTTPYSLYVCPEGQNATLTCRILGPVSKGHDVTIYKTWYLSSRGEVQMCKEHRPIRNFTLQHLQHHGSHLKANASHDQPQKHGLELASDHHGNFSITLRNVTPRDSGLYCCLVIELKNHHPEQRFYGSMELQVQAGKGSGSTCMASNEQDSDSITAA

T2: human VISTA protein (hVISTA-Fc, R&D Systems, Cat. No. 7126-B7) (human, UniProt Q9H7M9 33-194)
T2 construct: Bought recombinant protein; not shown: Fc part of the bought fusion protein
T2 sequence (looked up): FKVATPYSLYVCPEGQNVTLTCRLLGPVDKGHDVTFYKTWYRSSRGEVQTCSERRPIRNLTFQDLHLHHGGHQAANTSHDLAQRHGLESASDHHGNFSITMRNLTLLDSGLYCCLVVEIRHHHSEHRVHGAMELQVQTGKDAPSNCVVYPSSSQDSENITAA

T3: human VISTA protein overexpressed in the NIH/3T3 cell line (human, UniProt Q9H7M9 33-311)
T3 construct: whole, on cells; Gene cloned into pCMV3-C-FLAG (Sino Biological), so a C-terminal FLAG tag is likely; On whole cells in ELISA and flow cytometry; as sonicated lysate in immunoprecipitation; as reduced, boiled RIPA lysate in the western blot; also called VISTA/NIH/3T3 cell line; VISTA-expressing cell line
T3 sequence (looked up): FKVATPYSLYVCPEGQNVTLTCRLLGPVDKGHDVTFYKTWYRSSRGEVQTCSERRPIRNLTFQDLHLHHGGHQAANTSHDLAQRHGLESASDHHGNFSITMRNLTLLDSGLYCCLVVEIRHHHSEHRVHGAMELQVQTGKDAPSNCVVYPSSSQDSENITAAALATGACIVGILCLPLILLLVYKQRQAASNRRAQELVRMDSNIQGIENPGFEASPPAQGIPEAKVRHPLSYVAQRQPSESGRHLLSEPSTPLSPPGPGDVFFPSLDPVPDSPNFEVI

B1: 4A3 full IgG1 antibody (antibody, V domains shown)
VH: EVQLLESGGGLVQPGGSLRLSCAASGFTFSNYYMHWVRQAPGKGLEWVSSISFTGSTSYNPSLKSRFTISRDNSKNTLYLQMNSLRAEDTAVYYCARLGIPFFTYLDYWGQGTLVTVSS
VL: QSVLTQPPSASGTPGQRVTISCGGNNIGSKSVHWYQQLPGTAPKLLIYEDTERPSGVSDRFSGSKSGTSASLAISGLRSEDEADYYCQAWDSSTVVFGGGTKLTVLR
notes: scFv clone converted to full IgG1, made in CHO-S cells; also called anti-VISTA antibody
B2: 4A2 full IgG1 antibody (antibody, V domains shown)
VH: EVQLLESGGGLVQPGGSLRLSCAASGFTFSNYAMSWVRQAPGKGLEWVSEISHSGTTNYNPSLKSRFTISRDNSKNTLYLQMNSLRAEDTAVYYCTRAIWGFDYWGQGTLVTVSS
VL: QSVLTQPPSASGTPGQRVTISCSRENIGSRSVHWYQQLPGTAPKLLIYDNNERASGVPNRFSGSKSGTSASLAISGLRSEDEADYYCQAWDSSTAVFGGGTKLTVLR
notes: scFv clone converted to full IgG1, made in CHO-S cells; also called 4A2 antibody; anti-VISTA antibody
B3: 4D2 full IgG1 antibody (antibody, V domains shown)
VH: EVQLLESGGGLVQPGGSLRLSCAASGFTFSSYWIAWVRQAPGKGLEWVSTISGSGGYTYYAESVKGRFTISRDNSKNTLYLQMNSLRAEDTAVYYCARDSSGWLNYWGQGTLVTVSS
VL: EIVLTQSPGTLSLSPGERATLSCRASQSITSHLAWYQQKPGQAPRLLIYDASNRATGIPDRFSGSGSGTDFTLTISRLEPEDFAVYYCQQYNNWPPITFGQGTKVEIKR
notes: as for B1
B4: 4F2 full IgG1 antibody (antibody, V domains shown)
VH: EVQLLESGGGLVQPGGSLRLSCAASGFTFSDYYMHWVRQAPGKGLEWVSEIIPIFDTANYAQKFQDRFTISRDNSKNTLYLQMNSLRAEDTAVYYCARSTGDYFDYWGQGTLVTVSS
VL: QSVLTQPPSASGTPGQRVTISCSGDKLGNKYTSWYQQLPGTAPKLLIYDNNKRPSGVPDRFSGSKSGTSASLAISGLRSEDEADYYCGTWDSSLSAYVFGGGTKLTVLR
notes: as for B1
B5: 4G3 full IgG1 antibody (antibody, V domains shown)
VH: EVQLLESGGGLVQPGGSLRLSCVASGFTFSEKSIHWVRQAPGKGLEWVSGTSANTGNTYYADSVKGRFTISRDNSKNTLYLQMNSLRAEDTAVYYCAHHNWAGYFDYWGQGTLVTVSS
VL: EIVLTQSPGILSLSPGERATLSCQASHAISNYINWYQQKPGQAPRLLIYDASNRATGIPDRFSGSGSGTDFTLTISRLEPEDFAVYYCQQSNSFPYTFGQGTKVEIKR
notes: as for B1
B6: 4H2 full IgG1 antibody (antibody, V domains shown)
VH: EVQLLESGGGLVQPGGSLRLSCAASGFTFSTAWMSWVRQAPGKGLEWVSRVNPSDSHTDYSPSFQDRFTISRDNSKNTLYLQMNSLRAEDTAVYYCARVPPGYGFDIWGQGTLVTVSS
VL: B5 VL with I10T, H27Q, A28D, S30T, I33L, N92Y, F94T, Y96F
notes: as for B1
B7: 4A3 scFv (scFv, V domains shown)
VH: B1 VH
VL: QSVLTQPPSASGTPGQRVTISCGGNNIGSKSVHWYQQLPGTAPKLLIYEDTERPSGVSDRFSGSKSGTSASLAISGLRSEDEADYYCQAWDSSTVVFGGGTKLTVL
notes: One-chain scFv with an HA tag from a synthetic human scFv library, made in E. coli
B8: 4H2 scFv (scFv, V domains shown)
VH: B6 VH
VL: EIVLTQSPGTLSLSPGERATLSCQASQDITNYLNWYQQKPGQAPRLLIYDASNRATGIPDRFSGSGSGTDFTLTISRLEPEDFAVYYCQQSYSTPFTFGQGTKVEIK
notes: as for B7
B9: 4A2 scFv (scFv, V domains shown)
VH: B2 VH
VL: QSVLTQPPSASGTPGQRVTISCSRENIGSRSVHWYQQLPGTAPKLLIYDNNERASGVPNRFSGSKSGTSASLAISGLRSEDEADYYCQAWDSSTAVFGGGTKLTVL
notes: as for B7
B10: 4D2 scFv (scFv, V domains shown)
VH: B3 VH
VL: EIVLTQSPGTLSLSPGERATLSCRASQSITSHLAWYQQKPGQAPRLLIYDASNRATGIPDRFSGSGSGTDFTLTISRLEPEDFAVYYCQQYNNWPPITFGQGTKVEIK
notes: as for B7
B11: 4F2 scFv (scFv, V domains shown)
VH: B4 VH
VL: QSVLTQPPSASGTPGQRVTISCSGDKLGNKYTSWYQQLPGTAPKLLIYDNNKRPSGVPDRFSGSKSGTSASLAISGLRSEDEADYYCGTWDSSLSAYVFGGGTKLTVL
notes: as for B7
B12: 4G3 scFv (scFv, V domains shown)
VH: B5 VH
VL: B8 VL with T10I, Q27H, D28A, T30S, L33I, Y92N, T94F, F96Y
notes: as for B7

Residue numbers refer to the chain shown, from its start.

The first experiment deals with T1, mouse VISTA protein (mVISTA-Fc, R&D …). Put plainly: ELISA on coated mVISTA-Fc. (In general: ELISA stands for enzyme-linked immunosorbent assay.)
Turning to B1, the binding result was “no binding (tested: 100 ng per well)”. In the case of B2, the binding result is “no binding (tested: 100 ng per well)”.

On to B3, for which the binding result is on record as “no binding (tested: 100 ng per well)”. As for B4, the binding result was “no binding (tested: 100 ng per well)”. On the same count and under the same terms, the same measure for B5: “no binding (tested: 100 ng per well)”.

Turning to B6, the binding result was “no binding (tested: 100 ng per well)”.

Another experiment addresses T2, human VISTA protein (hVISTA-Fc, R&D …). Put plainly: ELISA on coated hVISTA-Fc, antibody at 100 ng per well.
B1: the binding result is on record as “binds”. On the same count and under the same terms, the same measure for B2: “binds”; for B3: “binds”. The same measure, in the same setting: the same measure for B4: “binds”; for B5: “binds”. On the same count and under the same terms, then B6, with “binds”.

For the next experiment, the target named is T3, human VISTA protein overexpressed in …. Put plainly: cell ELISA of scFv on VISTA-expressing NIH/3T3 cells, anti-HA HRP.
On to B7, for which the binding result was “binds”. With B8, the binding result was “binds”.

As for B9, the binding result is “binds”. Regarding B10, the binding result is given as “binds”.

For B11, the binding result was “binds”. The same measure, in the same setting: the same measure for B12: “binds”.

Values taken from patent EP4585619A1 (Cichlid Inc., dated 2025).
